Data published in article PMC4478348.

Biological target: LARP4B (UniProt Q92615 1-738)
Assay: EMSA

Chain of LARP4B (Q92615 whole entry): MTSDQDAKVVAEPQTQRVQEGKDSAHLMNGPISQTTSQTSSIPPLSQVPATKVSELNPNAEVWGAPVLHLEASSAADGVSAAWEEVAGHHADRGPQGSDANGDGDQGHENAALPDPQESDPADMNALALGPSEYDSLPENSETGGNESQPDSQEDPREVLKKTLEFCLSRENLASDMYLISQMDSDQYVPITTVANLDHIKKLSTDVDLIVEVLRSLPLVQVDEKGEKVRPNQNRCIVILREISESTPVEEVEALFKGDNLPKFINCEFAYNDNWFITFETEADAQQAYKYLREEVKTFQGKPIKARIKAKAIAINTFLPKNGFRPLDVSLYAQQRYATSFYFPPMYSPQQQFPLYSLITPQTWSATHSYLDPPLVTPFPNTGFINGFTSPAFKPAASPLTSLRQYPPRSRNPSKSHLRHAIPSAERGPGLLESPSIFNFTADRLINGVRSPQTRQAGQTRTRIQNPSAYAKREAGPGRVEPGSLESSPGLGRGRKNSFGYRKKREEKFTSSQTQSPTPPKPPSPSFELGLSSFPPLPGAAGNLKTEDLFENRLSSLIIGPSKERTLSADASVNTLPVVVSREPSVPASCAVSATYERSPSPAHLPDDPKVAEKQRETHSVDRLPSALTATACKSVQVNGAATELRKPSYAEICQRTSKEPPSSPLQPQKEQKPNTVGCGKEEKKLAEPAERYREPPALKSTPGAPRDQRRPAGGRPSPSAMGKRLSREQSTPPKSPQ

Row | Binder | binding result | Kd [µM]
1 | GUAGAGACUUCCGUCACGCUUGGUAGAGGA (ssRNA) [CKB del] | no binding | –
2 | GUAGAGACUUCCGUCACGCUUGGUAGAGUUUAUUUUUUUGA (ssRNA) [CKB] | – | ~0.2
